Here are results for five molecules from paper PMC10718521, “Complexity of αvβ6-integrin targeting RGD peptide trimers: emergence of non-specific binding by synergistic interaction” (RSC Medicinal Chemistry, 2023).

One series can be described thus: in vivo. The note with it: CB17 SCID, mouse, total radioactivity. The arrangement: species or system mice.
The format of series [1] is physicochemical. The note with it: pH 7.4.
A further series has as its target α5β1-integrin (Homo sapiens, UniProt P05556+P08648). Set-up: method as in PMID 34559266. The note with it: ELISA; read-out: IC50 (95% confidence interval) α5β1; cited from earlier work.
A further series has as its target αvβ8-integrin (Homo sapiens, UniProt P06756+P26012). Set-up: method as in PMID 34559266. The note with it: ELISA; read-out: IC50 (95% confidence interval) αvβ8; cited from earlier work.
The next series addresses αvβ6-integrin (Homo sapiens, UniProt P06756+P18564). Set-up: method as in PMID 34559266. The note with it: ELISA; read-out: IC50 (95% confidence interval) αvβ6; cited from earlier work.
The next series has as its target αvβ3-integrin (Homo sapiens, UniProt P05106+P06756). Set-up: method as in PMID 34559266. Particulars: ELISA; read-out: IC50 (95% confidence interval) αvβ3; cited from earlier work.
The mark [2] stands for this setting: tumor/organ ratio Heart (myocard).
The mark [3] stands for this setting: tumor/organ ratio Large intestine (empty).
Setting [4] is: tumor/organ ratio Small intestine (empty).
Where [5] appears, read: tumor/organ ratio Stomach (empty).

[ ]: non-standard residue; d: D form. The star is where a group is joined. NMeK = CN[C@@H](CCCCN)C(=O)O; Pent4ynoyl = C#CCCC(=O)*

Chain of αvβ8-integrin (P06756 31-992 limits assumed): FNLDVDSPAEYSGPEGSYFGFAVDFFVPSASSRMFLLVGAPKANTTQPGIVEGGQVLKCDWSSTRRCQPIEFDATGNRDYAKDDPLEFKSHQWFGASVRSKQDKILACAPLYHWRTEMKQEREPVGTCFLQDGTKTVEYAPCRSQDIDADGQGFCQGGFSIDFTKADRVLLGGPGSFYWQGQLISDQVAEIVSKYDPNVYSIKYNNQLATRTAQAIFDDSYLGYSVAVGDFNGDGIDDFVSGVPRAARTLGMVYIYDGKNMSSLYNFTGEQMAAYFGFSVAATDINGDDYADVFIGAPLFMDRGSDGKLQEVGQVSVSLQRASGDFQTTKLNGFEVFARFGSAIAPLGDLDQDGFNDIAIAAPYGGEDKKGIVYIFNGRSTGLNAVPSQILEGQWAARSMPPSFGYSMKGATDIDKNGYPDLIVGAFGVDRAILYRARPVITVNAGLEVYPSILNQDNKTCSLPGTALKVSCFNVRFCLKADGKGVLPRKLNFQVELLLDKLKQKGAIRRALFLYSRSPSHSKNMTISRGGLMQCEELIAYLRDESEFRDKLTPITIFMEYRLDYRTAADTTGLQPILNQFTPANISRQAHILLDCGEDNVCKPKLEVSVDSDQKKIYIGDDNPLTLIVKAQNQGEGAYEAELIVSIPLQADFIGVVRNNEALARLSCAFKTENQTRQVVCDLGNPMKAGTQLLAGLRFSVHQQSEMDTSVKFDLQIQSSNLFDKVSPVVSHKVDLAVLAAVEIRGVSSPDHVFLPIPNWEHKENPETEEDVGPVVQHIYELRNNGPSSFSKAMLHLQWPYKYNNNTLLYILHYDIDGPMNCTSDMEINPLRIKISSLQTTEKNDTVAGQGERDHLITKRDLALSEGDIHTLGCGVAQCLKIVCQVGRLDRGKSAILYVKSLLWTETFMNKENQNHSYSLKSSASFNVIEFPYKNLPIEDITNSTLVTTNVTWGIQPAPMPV
Chain of αvβ8-integrin (P26012 43-684 limits assumed): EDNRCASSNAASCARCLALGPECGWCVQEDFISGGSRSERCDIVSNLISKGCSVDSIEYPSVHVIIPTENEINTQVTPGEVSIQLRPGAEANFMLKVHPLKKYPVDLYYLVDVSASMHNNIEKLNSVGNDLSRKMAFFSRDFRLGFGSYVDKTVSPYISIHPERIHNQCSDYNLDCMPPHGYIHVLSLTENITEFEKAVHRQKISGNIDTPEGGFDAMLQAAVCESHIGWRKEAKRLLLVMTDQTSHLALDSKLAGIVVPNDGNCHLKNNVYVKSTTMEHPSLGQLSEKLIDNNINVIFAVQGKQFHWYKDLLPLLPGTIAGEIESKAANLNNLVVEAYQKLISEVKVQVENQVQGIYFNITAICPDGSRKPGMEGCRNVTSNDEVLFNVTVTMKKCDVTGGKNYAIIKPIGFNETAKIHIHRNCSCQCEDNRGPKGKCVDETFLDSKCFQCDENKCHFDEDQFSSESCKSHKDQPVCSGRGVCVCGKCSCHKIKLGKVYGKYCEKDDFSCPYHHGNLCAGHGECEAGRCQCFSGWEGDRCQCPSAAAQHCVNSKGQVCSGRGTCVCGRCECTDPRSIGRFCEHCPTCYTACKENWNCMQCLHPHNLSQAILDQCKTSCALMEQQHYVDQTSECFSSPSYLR
Chain of αvβ6-integrin (P06756 31-992 limits assumed): as the sequence (P06756 31-992 limits assumed) above
Chain of αvβ6-integrin (P18564 22-707 limits assumed): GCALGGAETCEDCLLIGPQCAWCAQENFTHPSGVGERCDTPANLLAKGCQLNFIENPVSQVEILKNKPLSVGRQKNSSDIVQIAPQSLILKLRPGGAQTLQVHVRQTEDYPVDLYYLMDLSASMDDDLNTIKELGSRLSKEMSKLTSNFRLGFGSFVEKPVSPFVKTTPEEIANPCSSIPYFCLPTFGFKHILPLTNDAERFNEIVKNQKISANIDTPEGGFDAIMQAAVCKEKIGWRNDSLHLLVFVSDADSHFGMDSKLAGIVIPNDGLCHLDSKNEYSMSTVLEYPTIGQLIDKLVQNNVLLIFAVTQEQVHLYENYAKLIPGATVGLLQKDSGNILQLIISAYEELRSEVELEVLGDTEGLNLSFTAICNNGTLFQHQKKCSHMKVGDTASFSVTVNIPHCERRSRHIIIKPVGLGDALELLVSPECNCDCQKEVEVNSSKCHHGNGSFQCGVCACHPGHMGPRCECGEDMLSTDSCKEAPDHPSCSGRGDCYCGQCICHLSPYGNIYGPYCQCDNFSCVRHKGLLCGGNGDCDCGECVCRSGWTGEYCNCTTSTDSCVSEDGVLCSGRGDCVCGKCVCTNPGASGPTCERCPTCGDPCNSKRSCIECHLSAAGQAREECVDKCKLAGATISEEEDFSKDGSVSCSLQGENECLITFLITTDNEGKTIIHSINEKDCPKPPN
Chain of αvβ3-integrin (P06756 31-1048): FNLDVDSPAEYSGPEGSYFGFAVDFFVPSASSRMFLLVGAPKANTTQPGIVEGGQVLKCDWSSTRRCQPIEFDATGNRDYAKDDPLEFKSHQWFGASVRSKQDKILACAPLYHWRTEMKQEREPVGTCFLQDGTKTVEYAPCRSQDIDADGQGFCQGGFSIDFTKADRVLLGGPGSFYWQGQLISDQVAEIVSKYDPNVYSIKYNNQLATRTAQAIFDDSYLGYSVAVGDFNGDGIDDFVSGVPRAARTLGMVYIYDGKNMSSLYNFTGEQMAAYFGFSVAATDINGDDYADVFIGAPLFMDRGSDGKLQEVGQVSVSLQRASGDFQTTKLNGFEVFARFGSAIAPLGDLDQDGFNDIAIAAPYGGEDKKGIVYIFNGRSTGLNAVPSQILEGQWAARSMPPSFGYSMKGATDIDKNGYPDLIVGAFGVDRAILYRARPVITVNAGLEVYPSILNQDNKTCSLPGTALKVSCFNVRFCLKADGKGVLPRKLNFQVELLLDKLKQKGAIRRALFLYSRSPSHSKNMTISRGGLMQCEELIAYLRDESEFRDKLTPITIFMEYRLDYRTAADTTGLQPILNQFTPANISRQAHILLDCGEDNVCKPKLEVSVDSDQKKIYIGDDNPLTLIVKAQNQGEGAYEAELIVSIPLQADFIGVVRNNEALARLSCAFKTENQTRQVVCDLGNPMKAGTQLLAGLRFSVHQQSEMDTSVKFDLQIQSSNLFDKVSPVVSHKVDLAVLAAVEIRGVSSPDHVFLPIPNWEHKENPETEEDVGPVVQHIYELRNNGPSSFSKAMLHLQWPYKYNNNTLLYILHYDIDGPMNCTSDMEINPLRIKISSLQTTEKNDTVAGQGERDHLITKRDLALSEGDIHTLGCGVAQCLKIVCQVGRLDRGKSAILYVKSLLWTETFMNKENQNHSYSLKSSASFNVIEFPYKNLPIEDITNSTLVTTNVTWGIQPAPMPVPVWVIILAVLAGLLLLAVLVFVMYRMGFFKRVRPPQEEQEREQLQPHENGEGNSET
Chain of αvβ3-integrin (P05106 27-788): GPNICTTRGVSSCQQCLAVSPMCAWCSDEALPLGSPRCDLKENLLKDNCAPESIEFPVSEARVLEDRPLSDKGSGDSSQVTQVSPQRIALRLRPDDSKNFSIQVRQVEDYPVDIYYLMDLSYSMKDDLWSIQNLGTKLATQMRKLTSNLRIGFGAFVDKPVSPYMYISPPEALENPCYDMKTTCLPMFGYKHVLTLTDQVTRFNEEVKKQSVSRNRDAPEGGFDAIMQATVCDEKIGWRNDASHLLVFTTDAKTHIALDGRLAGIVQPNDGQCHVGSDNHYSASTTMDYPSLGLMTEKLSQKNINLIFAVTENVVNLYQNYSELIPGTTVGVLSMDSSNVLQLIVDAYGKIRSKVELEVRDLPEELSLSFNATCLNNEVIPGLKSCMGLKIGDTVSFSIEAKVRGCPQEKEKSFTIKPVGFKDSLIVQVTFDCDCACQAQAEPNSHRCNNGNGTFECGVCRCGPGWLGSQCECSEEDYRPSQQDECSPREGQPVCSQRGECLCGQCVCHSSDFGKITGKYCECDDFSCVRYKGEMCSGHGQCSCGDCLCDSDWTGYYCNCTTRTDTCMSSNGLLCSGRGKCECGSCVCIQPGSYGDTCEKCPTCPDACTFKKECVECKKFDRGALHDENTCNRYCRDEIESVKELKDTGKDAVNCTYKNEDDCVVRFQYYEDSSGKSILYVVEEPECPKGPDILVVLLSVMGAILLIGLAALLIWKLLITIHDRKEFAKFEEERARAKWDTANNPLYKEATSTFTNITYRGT

Regarding `CC(C)C[C@@H]1NC(=O)[C@H](CC(=O)O)NC(=O)CNC(=O)[C@H](CCCNC(=N)N)NC(=O)[C@H](Cc2ccc(O)cc2)NC(=O)[C@H](CCCCNC(=O)CCc2cn(CCCNC(=O)CCP(=O)(O)CN3CCN(CP(=O)(O)CCC(=O)NCCCn4cc(CCC(=O)NCCCC[C@H]5C(=O)N[C@@H](Cc6ccc(O)cc6)C(=O)N[C@@H](CCCNC(=N)N)C(=O)NCC(=O)N[C@@H](CC(=O)O)C(=O)N[C@@H](CC(C)C)C(=O)N[C@@H](C)C(=O)N[C@@H](Cc6ccccc6)C(=O)N6CCC[C@@H]6C(=O)N5C)nn4)CCN(CP(=O)(O)CCC(=O)NCCCn4cc(CCC(=O)NCCCC[C@H]5C(=O)N[C@@H](Cc6ccc(O)cc6)C(=O)N[C@@H](CCCNC(=N)N)C(=O)NCC(=O)N[C@@H](CC(=O)O)C(=O)N[C@@H](CC(C)C)C(=O)N[C@@H](C)C(=O)N[C@@H](Cc6ccccc6)C(=O)N6CCC[C@@H]6C(=O)N5C)nn4)CC3)nn2)N(C)C(=O)[C@H]2CCCN2C(=O)[C@H](Cc2ccccc2)NC(=O)[C@H](C)NC1=O` (68Ga complex, metal not drawn) [Y3Y], the tissue uptake at 1.5 h in the series “in vivo” (Adrenals uptake) came out at 0.81 ± 0.41 %ID/g; in “in vivo” (Blood uptake), 1.13 ± 0.25 %ID/g; in the series “in vivo” (Heart (myocard) uptake), 0.66 ± 0.16 %ID/g; in the series “in vivo” (Kidneys uptake), 72.6 ± 5.25 %ID/g; in “in vivo” (Large intestine (empty) uptake), 3.94 ± 1.85 %ID/g; in “in vivo” (Liver uptake), 1.23 ± 0.19 %ID/g. Further, the tissue uptake at 1.5 h in “in vivo” (Lung uptake) was found to be 4.96 ± 0.48 %ID/g; in “in vivo” (Muscle uptake) it was 0.51 ± 0.11 %ID/g; in the series “in vivo” (Pancreas uptake), 0.33 ± 0.07 %ID/g; in “in vivo” (Small intestine (empty) uptake), 1.69 ± 0.2 %ID/g; in the series “in vivo” (Spleen uptake) it was 3.82 ± 0.82 %ID/g; in the series “in vivo” (Stomach (empty) uptake) it was 4.03 ± 1.36 %ID/g. Also, in the series “in vivo” (Tumor H2009 uptake), the tissue uptake at 1.5 h came to 5.92 ± 2.07 %ID/g. The tissue to tissue ratio at 1.5 h came out at 6.7 ± 3 in the series “in vivo” (tumor/organ ratio Adrenals); 4.9 ± 0.5 in “in vivo” (tumor/organ ratio Blood); 8.5 ± 1.1 in “in vivo” (setting [2]); 0.1 in “in vivo” (tumor/organ ratio Kidneys); 1.8 ± 1.1 in the series “in vivo” (setting [3]); 4.4 ± 0.7 in “in vivo” (tumor/organ ratio Liver). Further, the tissue to tissue ratio at 1.5 h came to 1 ± 0.2 in the series “in vivo” (tumor/organ ratio Lung); 10.7 ± 1.1 in the series “in vivo” (tumor/organ ratio Muscle); 17 ± 1.4 in the series “in vivo” (tumor/organ ratio Pancreas); 3.2 ± 0.6 in the series “in vivo” (setting [4]); 1.4 ± 0.2 in the series “in vivo” (tumor/organ ratio Spleen); 1.5 ± 0.7 in “in vivo” (setting [5]). Further, in series [1], the logD is -1.7 ± 0.1.
As to `CC(C)C[C@@H]1NC(=O)[C@H](CC(=O)O)NC(=O)CNC(=O)[C@H](CCCNC(=N)N)NC(=O)[C@H](Cc2ccccc2)NC(=O)[C@H](CCCCNC(=O)CCc2cn(CCCNC(=O)CCP(=O)(O)CN3CCN(CP(=O)(O)CCC(=O)NCCCn4cc(CCC(=O)NCCCC[C@H]5C(=O)N[C@@H](Cc6ccc(O)cc6)C(=O)N[C@@H](CCCNC(=N)N)C(=O)NCC(=O)N[C@@H](CC(=O)O)C(=O)N[C@@H](CC(C)C)C(=O)N[C@@H](C)C(=O)N[C@@H](Cc6ccc(O)cc6)C(=O)N6CCC[C@@H]6C(=O)N5C)nn4)CCN(CP(=O)(O)CCC(=O)NCCCn4cc(CCC(=O)NCCCC[C@H]5C(=O)N[C@@H](Cc6ccc(O)cc6)C(=O)N[C@@H](CCCNC(=N)N)C(=O)NCC(=O)N[C@@H](CC(=O)O)C(=O)N[C@@H](CC(C)C)C(=O)N[C@@H](C)C(=O)N[C@@H](Cc6ccc(O)cc6)C(=O)N6CCC[C@@H]6C(=O)N5C)nn4)CC3)nn2)N(C)C(=O)[C@H]2CCCN2C(=O)[C@H](Cc2ccccc2)NC(=O)[C@H](C)NC1=O` (68Ga complex, metal not drawn) [Y4], the tissue uptake at 1.5 h in the series “in vivo” (Adrenals uptake) was 0.71 ± 0.37 %ID/g; in “in vivo” (Blood uptake), 0.86 ± 0.26 %ID/g; in “in vivo” (Heart (myocard) uptake), 0.47 ± 0.12 %ID/g; in “in vivo” (Kidneys uptake), 91.3 ± 8.28 %ID/g; in the series “in vivo” (Large intestine (empty) uptake), 2.29 ± 0.59 %ID/g; in “in vivo” (Liver uptake), 0.93 ± 0.14 %ID/g. Also, the tissue uptake at 1.5 h in the series “in vivo” (Lung uptake) worked out at 3.22 ± 0.63 %ID/g; in “in vivo” (Muscle uptake), 1.41 ± 0.06 %ID/g; in the series “in vivo” (Pancreas uptake), 0.28 ± 0.08 %ID/g; in “in vivo” (Small intestine (empty) uptake), 1.35 ± 0.53 %ID/g; in the series “in vivo” (Spleen uptake), 1.57 ± 0.57 %ID/g; in “in vivo” (Stomach (empty) uptake), 4.92 ± 1.06 %ID/g. The tissue uptake at 1.5 h in the series “in vivo” (Tumor H2009 uptake) was 4.47 ± 0.96 %ID/g. The tissue to tissue ratio at 1.5 h in “in vivo” (tumor/organ ratio Adrenals) was 7.1 ± 1.9; in the series “in vivo” (tumor/organ ratio Blood) it was 5.5 ± 1.4; in the series “in vivo” (setting [2]), 9.6 ± 1.3; in “in vivo” (tumor/organ ratio Kidneys) it was 0.1; in the series “in vivo” (setting [3]) it was 2.1 ± 0.6; in “in vivo” (tumor/organ ratio Liver), 5 ± 0.5. In addition, the tissue to tissue ratio at 1.5 h in “in vivo” (tumor/organ ratio Lung) was determined as 1.4 ± 0.2; in the series “in vivo” (tumor/organ ratio Muscle) it was 12.2 ± 2.8; in the series “in vivo” (tumor/organ ratio Pancreas), 16.5 ± 1.6; in the series “in vivo” (setting [4]) it was 3.7 ± 1; in the series “in vivo” (tumor/organ ratio Spleen), 3 ± 0.7; in the series “in vivo” (setting [5]), 1 ± 0.3. Further, the logD in series [1] was -1.9 ± 0.1.
As to `CC(C)C[C@@H]1NC(=O)[C@H](CC(=O)O)NC(=O)CNC(=O)[C@H](CCCNC(=N)N)NC(=O)[C@H](Cc2ccc(O)cc2)NC(=O)[C@H](CCCCNC(=O)CCc2cn(CCCNC(=O)CCP(=O)(O)CN3CCN(CP(=O)(O)CCC(=O)NCCCn4cc(CCC(=O)NCCCC[C@H]5C(=O)N[C@@H](Cc6ccc(O)cc6)C(=O)N[C@@H](CCCNC(=N)N)C(=O)NCC(=O)N[C@@H](CC(=O)O)C(=O)N[C@@H](CC(C)C)C(=O)N[C@@H](C)C(=O)N[C@@H](Cc6ccc(O)cc6)C(=O)N6CCC[C@@H]6C(=O)N5C)nn4)CCN(CP(=O)(O)CCC(=O)NCCCn4cc(CCC(=O)NCCCC[C@H]5C(=O)N[C@@H](Cc6ccc(O)cc6)C(=O)N[C@@H](CCCNC(=N)N)C(=O)NCC(=O)N[C@@H](CC(=O)O)C(=O)N[C@@H](CC(C)C)C(=O)N[C@@H](C)C(=O)N[C@@H](Cc6ccc(O)cc6)C(=O)N6CCC[C@@H]6C(=O)N5C)nn4)CC3)nn2)N(C)C(=O)[C@H]2CCCN2C(=O)[C@H](Cc2ccc(O)cc2)NC(=O)[C@H](C)NC1=O` (68Ga complex, metal not drawn) [Y6], the tissue uptake at 1.5 h worked out at 0.5 ± 0.11 %ID/g in “in vivo” (Adrenals uptake); 1.03 ± 0.21 %ID/g in the series “in vivo” (Blood uptake); 0.59 ± 0.11 %ID/g in “in vivo” (Heart (myocard) uptake); 95.7 ± 12.6 %ID/g in the series “in vivo” (Kidneys uptake); 4.36 ± 0.77 %ID/g in “in vivo” (Large intestine (empty) uptake); 0.73 ± 0.11 %ID/g in “in vivo” (Liver uptake). The tissue uptake at 1.5 h in “in vivo” (Lung uptake) is 4.47 ± 1.12 %ID/g; in the series “in vivo” (Muscle uptake), 0.68 ± 0.18 %ID/g; in “in vivo” (Pancreas uptake) it was 0.27 ± 0.04 %ID/g; in the series “in vivo” (Small intestine (empty) uptake) it was 2.72 ± 1.15 %ID/g; in the series “in vivo” (Spleen uptake), 3.91 ± 0.91 %ID/g; in “in vivo” (Stomach (empty) uptake), 6.24 ± 1.24 %ID/g. The tissue uptake at 1.5 h in “in vivo” (Tumor H2009 uptake) was found to be 7.52 ± 1.21 %ID/g. Moreover, in series [1], the logD was -2.1 ± 0.1.
For the molecule “FF: cyclo[FRGDLAFp(NMe)K] bearing 4-pentynoic amide on the Lys side chain; alkyne-functionalized peptide monomer”, the IC50 was 226 nM with α5β1-integrin, 32 nM with αvβ8-integrin, 0.17 nM in the series with αvβ6-integrin and 424 nM with αvβ3-integrin.
Consider “YY: cyclo[YRGDLAYp(NMe)K] bearing 4-pentynoic amide on the Lys side chain; alkyne-functionalized peptide monomer (cyclo(YRGDLAY[dP][NMeK](Pent4ynoyl)); SMILES C#CCCC(=O)NCCCC[C@H]1C(=O)N[C@@H](Cc2ccc(O)cc2)C(=O)N[C@@H](CCCNC(=N)N)C(=O)NCC(=O)N[C@@H](CC(=O)O)C(=O)N[C@@H](CC(C)C)C(=O)N[C@@H](C)C(=O)N[C@@H](Cc2ccc(O)cc2)C(=O)N2CCC[C@@H]2C(=O)N1C)”, for which the IC50 with α5β1-integrin is 150 nM; with αvβ8-integrin, 26 nM; with αvβ6-integrin it was 0.84 nM; with αvβ3-integrin, 219 nM.
